Assay results published in patent publication US12715902B2 (dated 2026).

Columns and labels:
Assay in all cases: cytokine release
[1] = target: T1, ATM G2695C peptide on HLA-A*03:01 (human)
T1 peptide: LAGCVNLPK
Source text: (§1) To confirm the specificity and activity of nucleic acid encoding TCRs against ATM and ARID1A, each of the codon optimized nucleic acids were introduced into donor T cells. The chimeric TCR-transduced T cells (TRBV9*01+TRAV14/DV4 chimeric TCR) were co-cultured with dendritic cells expressing wildtype ATM or mutated forms of ATM (G2695V, G2695A, G2695C, or G2695S). The chimeric TCR-transduced T cells (TRBV25-1+TRAV20 chimeric TCR) were co-cultured with dendritic cells expressing wildtype ARID1A or ARID1A H1960fs. After overnight incubation, the supernatant was assessed for production of interferon-gamma using an ELISA. […] See FIGS. 9A and 9B, respectively.

[2] = target: T2, ATM G2695S peptide on HLA-A*03:01 (human)
T2 peptide: LAGSVNLPK
Source text: as §1

[3] = target: T3, ATM G2695V peptide on HLA-A*03:01 (human)
T3 peptide: LAGVVNLPK
Source text: as §1

[4] = target: T4, ATM G2695A peptide on HLA-A*03:01 (human)
T4 peptide: LAGAVNLPK
Source text: as §1

[5] = target: T5, ATM wild type (glycine at 2695) peptide on HLA-A*03:01 (human)
T5 peptide: LAGGVNLPK
Source text: as §1

B1: TRBV9*01+TRAV14/DV4 TCR (TCR, V domains shown)
Valpha: AQKITQTQPGMFVQEKEAVTLDCTYDTSDQSYGLFWYKQPSSGEMIFLIYQGSYDEQNATEGRYSLNFQKARKSANLVISASQLGDSAMYFCAMREQGAQKLVFGQGTRLTINP
Vbeta: DSGVTQTPKHLITATGQQVTLRCSPRSGDLSVYWYQQSLDQGLQFLIQYYNGEERAKGNILERFSAQQFPDLHSELNLSSLELGDSALYFCASSAAVHYGYTFGSGTRLTVV
Q: Does B1 bind [1]?
A: recognises

Q: Does B1 bind [2]?
A: recognises

Q: Does B1 bind [3]?
A: recognises

Q: Does B1 bind [4]?
A: recognises

Q: Does B1 bind [5]?
A: no recognition
